According to PMC3576117:

Biological target: biotinylated, tyrosine-phosphorylated CLEC-2 alanine substitution mutant peptide (2–5 Ala)
Assay: SPR

fold decrease in affinity against the wild type peptide [fold] | Substance
4 | GST-tagged recombinant Syk C-terminal SH2 domain (domain or fragment)
3 | GST-tagged recombinant Syk tandem SH2 domains (both SH2 domains with the linker region) (domain or fragment)
